Entries after “also recorded” stand apart in the source; their conditions may differ. Peptide text beside a SMILES is read from it.
Legend:
porcine esophagus mucosa = experiment: Submucosal injection in in vivo porcine esophagus
Experimental: In another embodiment, mucosal aggregation visualized as white precipitate near the injection site was evaluated in an in vivo porcine esophagus.

pig stomach submucosa = experiment: Submucosal injection in in vivo porcine model, stomach; conditions: for Appearance of stomach mucosa / submucosal elevation after injection / submucosal elevation over time compared with saline and MucoUp: pH 7.5; for Appearance of stomach mucosa: 2 mL injected; for submucosal elevation after injection / submucosal elevation over time compared with saline and MucoUp: 2 mL of 0.1% (w/v) peptide, 0.9% NaCl, pig stomach
Experimental: An in vivo porcine animal model was used to perform endoscopic mucosal and submucosal dissections as described in Uraoka et al. (2009) Drug Des. Devel. Ther. 2:131-8, incorporated herein by reference. Briefly, 2 mL of select peptide formulations were injected in between the […] in stomach of a pig and the submucosa was dissected using electro-knife. The gross appearance of the injection site and of dissected submucosal tissues at the injection sites were analyzed. […] Therefore, an in vivo porcine model system was used to assess the ability of these compositions to induce submucosal elevation upon injection into gastrointestinal submucosa, and the degree of tissue damage. In this model, submucosal injections with liquid compositions were performed and the morphology of the site of injection analyzed. Submucosal injection with aqueous solutions is used during the excision of lesions from the gastrointestinal tract in order to facilitate removal of the lesion by providing a safety cushion during resection (see, e.g., Kim et al. (2013) World J. Gastroenterol. 19(20): 3069-76, incorporated herein by reference). Here, aqueous pharmaceutical compositions comprising three exemplary self-assembling peptides formulated at pH 7.5: KLNL12 (SEQ ID NO:21), NLKL12 (SEQ ID NO:23) or KIQI13 (SEQ ID NO:29), were compared to an aqueous pharmaceutical composition comprising the previously described RADA16 self-assembling peptide (formulated at pH 2.5), a 0.4% solution of sodium hyaluronate (MucoUp®, Boston Scientific Japan K.K., Tokyo, Japan), and saline, pH 7.5.

[1] = Frequency sweep test (storage modulus) before and after exposure to DMEM; format: physicochemical; conditions: pH 7.5; for increase of mechanical strength after exposure to DMEM: 0.15% (w/v); for rheological properties (mechanical strength) before and after exposure to DMEM: 1% (w/v) peptide
Experimental: Peptides formulated as aqueous solutions were placed between the plates of a rheometer (DHR-1, TA Instruments, 20 mm plates at a measuring geometry of 500 μm or 40 mm cone and plate at a measuring geometry of 2.0° of cone angle) and frequency stress sweep tests were performed at 0.1 Hz to 10 Hz of frequency with 0.1% of strain; measurements were performed after 2 minutes of relaxation time at 37° C. To do frequency sweep tests after exposure to Dulbecco's Modified Eagle Medium (DMEM), 10 mL of DMEM was added in chamber surrounding the plates, the sample in plates was submerged into the DMEM and the frequency test was performed as described after 20 minutes.
Rheological properties of aqueous pharmaceutical compositions comprising the exemplary self-assembling peptides KLNL12 (SEQ ID NO:21), KIQI13 (SEQ ID NO:29), or NLEL12 (SEQ ID NO:33) were determined by performing a frequency sweep test over storage modulus.
In some embodiments, peptides formulated as aqueous solutions, volume 700 μl, were placed between the plates of a rheometer (DHR-1, TA Instruments, 40 mm cone and plate at a measuring geometry of 2.0° of cone angle) and frequency sweep tests were performed at 0.1 Hz to 10 Hz of frequency with 0.1% of strain; measurements were performed after 2 minutes of relaxation time at 37° C. In some embodiments, frequency sweep tests were performed after exposure to Dulbecco's Modified Eagle Medium (DMEM), where 10 mL of DMEM was added in chamber surrounding the plates, the sample in plates was submerged into the DMEM and the frequency test was performed as described after 20 minutes.

[2] = Appearance (solubility) of aqueous compositions at pH 2.5 and pH 7.5; format: physicochemical
Experimental: To determine the solubility of exemplary self-assembling peptides in aqueous pharmaceutical compositions formulated at acidic and neutral pH, the appearance of the pharmaceutical compositions was assessed. Homogenous and transparent appearance reflects sufficient solubility of the peptides in solution and minimal hydrogel formation. […] The appearance of exemplary self-assembling peptides at pH 2.5 and pH 7.5 is shown below in Table 6 and FIG. 20.

[3] = Net charge of self-assembling peptides in solution; format: physicochemical; conditions: for Net charge at pH 7.5: in solution at pH 7.5
From the text: Several exemplary self-assembling peptides described herein (Table 5; SEQ ID NO:21-40) were designed to have a net charge, positive or negative, when formulated at pH 7.5. In contrast, previously-described self-assembling peptides have a net zero charge at the same pH.

[4] = Viscosity determination at increasing shear rate (shear thinning); format: physicochemical; conditions: 1% (w/v) peptide, pH 7.5
Experimental: Peptides formulated as aqueous solutions (200 μL), were placed between the plates of a rheometer (DHR-1, TA Instruments, 20 mm plates at a measuring geometry of 500 μm) and the viscosity was measured from 0.001 s^−1 to 100 s^−1 shear rate. Thixotropic Measurements
In some clinical applications, administration of pharmaceutical compositions comprising self-assembling peptides requires exposing the compositions to pressure and/or shear thinning (e.g., during injection through a syringe needle or transferred via a pump-based system). […] To determine the shear thinning properties of pharmaceutical compositions of the self-assembling peptides formulated at pH 7.5, formulations comprising varying ionic strengths were prepared using different concentrations of sodium chloride, and viscosity measured at increasing shear rates. Thixotropic properties of formulations were also determined as well as the storage modulus over time at specific frequencies and pressure.
FIGS. 6-8 show the experimentally determined viscosity of aqueous pharmaceutical compositions comprising either 1% (w/v) KLNL12 (SEQ ID NO:21), 1% (w/v) IQIK13 (SEQ ID NO:28), or 1% (w/v) NLEL12 (SEQ ID NO:33), at pH 7.5. FIGS. 9 and 10 show the experimentally determined viscosity of aqueous pharmaceutical compositions comprising either 1% KLNL12 (SEQ ID NO:21) or 1% NLEL12 (SEQ ID NO:33), and 0.9% NaCl (to mimic physiological conditions) at pH 7.5. […] That is, decreased viscosity with increasing sheer rate. This property may advantageously facilitate application and use of the pharmaceutical compositions (e.g., due to decreased viscosity while pumping) while maintaining a desirable viscosity at a site of application (e.g., where no sheer force is being applied).

[5] = porcine esophagus, compositions of Table 9

Compound: CC[C@H](C)[C@H](NC(=O)[C@H](CCC(N)=O)NC(=O)[C@@H](NC(=O)[C@H](CCCCN)NC(=O)[C@@H](NC(=O)[C@H](CCC(N)=O)NC(=O)[C@@H](NC(=O)[C@H](CCCCN)NC(=O)[C@@H](NC(=O)[C@H](CCC(N)=O)NC(=O)[C@@H](NC(=O)[C@H](CCCCN)NC(C)=O)[C@@H](C)CC)[C@@H](C)CC)[C@@H](C)CC)[C@@H](C)CC)[C@@H](C)CC)C(N)=O [KIQI12, Ac-KIQIKIQIKIQI-NH2] (Ac-KIQIKIQIKIQI-NH2)
- Appearance of stomach mucosa (porcine esophagus mucosa; porcine esophagus, 0.1% (w/v) peptide with NaCl 0.9%, pH 7.5): cloudy/aggregation
- mucosal aggregation at injection sites (porcine esophagus mucosa; [5]): Mucosal aggregation was observed
- Appearance of stomach mucosa (pig stomach submucosa; 0.1% (w/v) peptide with NaCl 0.9%): do not appear to alter submucosal tissue morphology; also recorded: Clear/transparent

Compound: CC(=O)N[C@@H](CC(C)C)C(=O)N[C@@H](CCC(=O)O)C(=O)N[C@@H](CC(C)C)C(=O)N[C@@H](CCC(N)=O)C(=O)N[C@@H](CC(C)C)C(=O)N[C@@H](CCC(=O)O)C(=O)N[C@@H](CC(C)C)C(=O)N[C@@H](CCC(N)=O)C(=O)N[C@@H](CC(C)C)C(=O)N[C@@H](CCC(=O)O)C(=O)N[C@@H](CC(C)C)C(=O)N[C@@H](CCC(N)=O)C(N)=O [LELQ12, Ac-LELQLELQLELQ-NH2] (Ac-LELQLELQLELQ-NH2)
- mucosal aggregation at injection sites (porcine esophagus mucosa; pig, in vivo): mucosal aggregation was not observed
- Appearance of stomach mucosa (porcine esophagus mucosa; pig, in vivo, pH 7.5): clear/transparent

Compound: CC(=O)N[C@@H](CCC(N)=O)C(=O)N[C@@H](CC(C)C)C(=O)N[C@@H](CCC(=O)O)C(=O)N[C@@H](CC(C)C)C(=O)N[C@@H](CCC(N)=O)C(=O)N[C@@H](CC(C)C)C(=O)N[C@@H](CCC(=O)O)C(=O)N[C@@H](CC(C)C)C(=O)N[C@@H](CCC(N)=O)C(=O)N[C@@H](CC(C)C)C(=O)N[C@@H](CCC(=O)O)C(=O)N[C@@H](CC(C)C)C(N)=O [QLEL12, Ac-QLELQLELQLEL-NH2] (Ac-QLELQLELQLEL-NH2)
- rheological property versus peptide concentration ([1]; 0.1% to 0.3% (w/v), 0.9% NaCl): linear relationship
- increase of mechanical strength after exposure to DMEM ([1]; 0.9% NaCl, frequency 0.1 Hz): 23 fold
- increase of mechanical strength after exposure to DMEM ([1]; 0.9% NaCl, frequency 1 Hz): 20 fold
- increase of mechanical strength after exposure to DMEM ([1]; 0.9% NaCl, frequency 10 Hz): 9 fold
- Appearance of stomach mucosa (porcine esophagus mucosa; porcine esophagus, 0.2% (w/v) peptide with NaCl 0.9%, pH 7.5): clear/transparent
- mucosal aggregation at injection sites (porcine esophagus mucosa; [5]): mucosal aggregation was not observed
- Appearance of stomach mucosa (pig stomach submucosa; 0.2% (w/v) peptide with NaCl 0.9%): no mucosal aggregation was observed; also recorded: do not appear to alter submucosal tissue morphology; also recorded: clear/transparent

Compound: Ac-IEIKIEIKIEIKI-NH2 [IEIK13]
- Appearance at different pH: At pH 7.5 [2]: phase separation and cloudy appearance

Compound: Ac-IKIQIKIQIKIQI-NH2 [IKIQ13]
- Net charge at pH 7.5 [3]: +3

Compound: Ac-INIKINIKINIKI-NH2 [INIK13]
- Net charge at pH 7.5 [3]: +3

Compound: Ac-IQIKIQIKIQIK-NH2 [IQIK12]
- Net charge at pH 7.5 [3]: +3

Compound: Ac-IQIKIQIKIQIKI-NH2 [IQIK13]
- Net charge at pH 7.5 [3]: +3
- viscosity in response to increasing shear rate [4]: exhibit sheer thinning

Compound: Ac-KANAKANAKANA-NH2 [KANA12]
- Net charge at pH 7.5 [3]: +3

Compound: Ac-KIQIKIQIKIQIK-NH2 [KIQI13]
- rheological properties (mechanical strength) before and after exposure to DMEM ([1]; 0.9% NaCl): increased after DMEM treatment
- rheological properties (mechanical strength) before and after exposure to DMEM [1]: increased after DMEM treatment
- Net charge at pH 7.5 [3]: +4
- submucosal elevation after injection (pig stomach submucosa): resulted in submucosal elevation
- submucosal elevation over time compared with saline and MucoUp (pig stomach submucosa): better submucosal elevation than saline and MucoUp®

Compound: Ac-KLDLKLDLKLDL-NH2 [KLDL12, reference compound]
- Appearance at different pH: At pH 7.5 [2]: phase separation and cloudy appearance
- Net charge at pH 7.5 [3]: 0
- Net charge at pH 7.5 ([3]; listed as KLD12): about zero

Compound: Ac-KLNLKLNLKLNLK-NH2 [KLNL13]
- Net charge at pH 7.5 [3]: +4

Compound: Ac-KLNLKLNLKLNLKLNLK-NH2 [KLNL17]
- Net charge at pH 7.5 [3]: +5

Compound: Ac-KLTLKLTLKLTL-NH2 [KLTL12]
- Net charge at pH 7.5 [3]: +3

Compound: Ac-KVNVKVNVKVNV-NH2 [KVNV12]
- Net charge at pH 7.5 [3]: +3

Compound: Ac-LKLNLKLNLKLN-NH2 [LKLN12]
- Net charge at pH 7.5 [3]: +3

Compound: Ac-LNLKLNLKLNLK-NH2 [LNLK12]
- Net charge at pH 7.5 [3]: +3

Compound: Ac-NLDLNLDLNLDL-NH2 [NLDL12]
- Net charge at pH 7.5 [3]: −3

Compound: Ac-NLKLNLKLNLKL-NH2 [NLKL12]
- Net charge at pH 7.5 [3]: +3
- submucosal elevation after injection (pig stomach submucosa): resulted in submucosal elevation
- submucosal elevation over time compared with saline and MucoUp (pig stomach submucosa): better submucosal elevation than saline and MucoUp®

Compound: Ac-QIKIQIKIQIKIQ-NH2 [QIKI13]
- Net charge at pH 7.5 [3]: +3

Compound: Ac-RADARADARADARADA-NH2 [RADA16, reference compound]
- Appearance at different pH: At pH 7.5 [2]: precipitates; also recorded: phase separation and cloudy appearance
- net charge as a function of pH ([3]; around neutral pH): about 0
- mucosal aggregation at injection sites (porcine esophagus mucosa; pig, in vivo): Mucosal aggregation was observed
- Appearance of stomach mucosa (porcine esophagus mucosa; pig, in vivo, pH 2.5): cloudy/aggregation
- period after injection until mucosal aggregation (pig stomach submucosa; pig, in vivo, pH 2.5): 10 to 15 min

Compound: Ac-RANARANARANARANA-NH2 [RANA16]
- Net charge at pH 7.5 [3]: +4
